Reference: publication doi:10.1101/2021.11.05.467472 (bioRxiv, 2021)
Substitutions are numbered along the chain they refer to. Names and notes keep the numbering of the source.

T1: CbbS (Rubisco small subunit) (H. neapolitanus, UniProt P45686 1-110)
T1 sequence: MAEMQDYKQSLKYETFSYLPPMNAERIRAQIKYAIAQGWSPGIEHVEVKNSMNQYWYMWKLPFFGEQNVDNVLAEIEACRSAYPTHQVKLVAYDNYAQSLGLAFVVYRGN

B1: CsoSCA-MBP (enzyme)
chain: MNTRNTRSKQRAPFGVSSSVKPRLDLIEQAPNPAYDRHPACITLPERTCRHPLTDLEANEQLGRCEDSVKNRFDRVIPFLQVVAGIPLGLDYVTRVQELAQSSLGHTLPEELLKDNWISGHNLKGIFGYATAKALTAATEQFSRKIMSEKDDSASAIGFFLDCGFHAVDISPCADGRLKGLLPYILRLPLTAFTYRKAYAGSMFDIEDDLAQWEKNELRRYREGVPNTADQPTRYLKIAVYHFSTSDPTHSGCAAHGSNDRAALEAALTQLMKFREAVENAHCCGASIDILLIGVDTDTDAIRVHIPDSKGFLNPYRYVDNTVTYAQTLHLAPDEARVIIHEAILNANRSDGWAKGNGVASEGMRRFIGQLLINNLSQIDYVVNRHGGRYPPNDIGHAERYISVGDGFDEVQIRNLAYYAHLDTVEENAIDVDVGIKIFTKLNLSRGLPIPIAIHYRYDPNVPGSRERTVVKARRIYNAIKERFSSLDEQNLLQFRLSVQAQDIGSPIEEVASA
B2: NTD_(1-53)-sfGFP R23A (domain or fragment)
chain: MNTRNTRSKQRAPFGVSSSVKPALDLIEQAPNPAYDRHPACITLPERTCRHPL
B3: Rubisco CbbL D99A (complex)
chain 1: MAVKKYSAGVKEYRQTYWMPEYTPLDSDILACFKITPQPGVDREEAAAAVAAESSTGTWTTVWTDLLTDMDYYKGRAYRIEDVPGDDAAFYAFIAYPIALFEEGSVVNVFTSLVGNVFGFKAVRGLRLEDVRFPLAYVKTCGGPPHGIQVERDKMNKYGRPLLGCTIKPKLGLSAKNYGRAVYECLRGGLDFTKDDENINSQPFMRWRDRFLFVQDATETAEAQTGERKGHYLNVTAPTPEEMYKRAEFAKEIGAPIIMHDYITGGFTANTGLAKWCQDNGVLLHIHRAMHAVIDRNPNHGIHFRVLTKILRLSGGDHLHTGTVVGKLEGDRASTLGWIDLLRESFIPEDRSRGIFFDQDWGSMPGVFAVASGGIHVWHMPALVNIFGDDSVLQFGGGTLGHPWGNAAGAAANRVALEACVEARNQGRDIEKEGKEILTAAAQHSPELKIAMETWKEIKFEFDTVDKLDTQNR
chain 2: T1 sequence
B4: Rubisco CbbL Y72A (complex)
chain 1: B3 chain 1 with Y72A, A99D
chain 2: T1 sequence
B5: NTD_(1-53)-sfGFP-His (domain or fragment)
chain: B2 chain with A23R
B6: CbbL (Rubisco large subunit) (natural protein)
chain: B3 chain 1 with A99D

How the values were obtained:
biotinylated Rubisco = biotinylated Rubisco (H. neapolitanus, UniProt O85040 1-473; P45686 1-110, biotin (subunit and site not stated)); test: BLI
[1] = molecular target: T2, Rubisco-strep (H. neapolitanus CbbL8S8) (H. neapolitanus, UniProt O85040 1-473; P45686 1-110); test: BLI
NTD_(1-53)-sfGFP-His = molecular target: B5; test: BLI
[2] = molecular target: T2, Rubisco-strep (H. neapolitanus CbbL8S8); test: SEC
[3] = molecular target: T2, Rubisco-strep (H. neapolitanus CbbL8S8); test: cryo-EM structure
[4] = molecular target: T1, CbbS (Rubisco small subunit); test: cryo-EM structure
cryo-EM structure = molecular target: the molecule itself; test: cryo-EM structure

Binder B1 has a Kd (biotinylated Rubisco) of 1.2 ± 0.1 nM.

B2: binds [1].

In the case of B3, the “fold increase in KD against wild type” value (NTD_(1-53)-sfGFP-His) is reported as 10 fold.

With B4 the “fold increase in KD against wild type” value (NTD_(1-53)-sfGFP-His) was 10 fold.

B5: binds [2].

With MNTRNTRSKQRAPFGVSSSVKPRLDLIEQAPNPAYDRHPACITLPERTCR [NTD_(1-50) peptide (CsoSCA residue 1-50)] the “stoichiometry N” value [3] was 8 and the binding result [4] was “binds”.

B6: binds (cryo-EM structure).
